Measured values taken from patent US20050009847A1, “Compounds and methods for increasing neurogenesis” (published 2005).

Biological target: alpha-subunit of the stimulatory G protein (Gs), mouse (mouse, UniProt P63094)
Assay: cell-based or functional assay

B1: Cholera toxin from Vibrio Cholerae (other)
chain: NDDKLYRADSRPPDEIKQSGGLMPRGQSEYFDRGTQMNINLYDHARGTQTGFVRHDDGYVSTSISLRSAHLVGQTILSGHSTYYIYVIATAPNMFNVNDVLGAYSPHPDEQEVSALGGIPYSQIYGWYRVHFGVLDEQLHRNRGYRDRYYSNLDIAPAADGYGLAGFPPEHRAWREEPWIHHAPPGCGNAPRSSMSNTCDEKTQSLGVKFLDEYQSKVKRQIFSGYQSDIDTHNRIKDEL
  cAMP, fold induction over vehicle, adult mouse neural stem cells: 3.1 fold induction
